In article PMC10765799 one finds response data, which are given here for one molecule.

In experiment [1] the target is T1, Gal4 AD-FAF1 WT, Q9UNN5.
T1 chain: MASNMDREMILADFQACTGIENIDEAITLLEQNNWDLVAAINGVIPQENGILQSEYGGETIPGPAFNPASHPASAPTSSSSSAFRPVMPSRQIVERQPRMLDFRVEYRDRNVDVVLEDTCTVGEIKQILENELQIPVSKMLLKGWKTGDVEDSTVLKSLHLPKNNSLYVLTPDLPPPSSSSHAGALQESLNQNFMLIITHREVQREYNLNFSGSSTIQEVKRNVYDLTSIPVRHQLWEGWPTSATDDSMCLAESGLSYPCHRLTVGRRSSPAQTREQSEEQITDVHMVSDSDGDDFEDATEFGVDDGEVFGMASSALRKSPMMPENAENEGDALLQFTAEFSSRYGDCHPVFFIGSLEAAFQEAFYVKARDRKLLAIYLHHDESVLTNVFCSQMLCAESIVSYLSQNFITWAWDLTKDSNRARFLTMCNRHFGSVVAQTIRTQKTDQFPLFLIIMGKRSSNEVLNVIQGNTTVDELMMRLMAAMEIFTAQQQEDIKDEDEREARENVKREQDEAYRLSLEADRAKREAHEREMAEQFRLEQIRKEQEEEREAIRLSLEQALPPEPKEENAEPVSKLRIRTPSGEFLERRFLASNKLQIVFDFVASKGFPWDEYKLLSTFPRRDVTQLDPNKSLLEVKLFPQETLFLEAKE
Briefly: yeast two-hybrid, quantitative liquid β-galactosidase assay. The note with it: chain shown with the change; yeast strain L40; parent: est. 1500000; read off a plot.

In experiment [2] the target is T2, Gal4 AD-mSin3A (full-length), Q60520.
T2 chain: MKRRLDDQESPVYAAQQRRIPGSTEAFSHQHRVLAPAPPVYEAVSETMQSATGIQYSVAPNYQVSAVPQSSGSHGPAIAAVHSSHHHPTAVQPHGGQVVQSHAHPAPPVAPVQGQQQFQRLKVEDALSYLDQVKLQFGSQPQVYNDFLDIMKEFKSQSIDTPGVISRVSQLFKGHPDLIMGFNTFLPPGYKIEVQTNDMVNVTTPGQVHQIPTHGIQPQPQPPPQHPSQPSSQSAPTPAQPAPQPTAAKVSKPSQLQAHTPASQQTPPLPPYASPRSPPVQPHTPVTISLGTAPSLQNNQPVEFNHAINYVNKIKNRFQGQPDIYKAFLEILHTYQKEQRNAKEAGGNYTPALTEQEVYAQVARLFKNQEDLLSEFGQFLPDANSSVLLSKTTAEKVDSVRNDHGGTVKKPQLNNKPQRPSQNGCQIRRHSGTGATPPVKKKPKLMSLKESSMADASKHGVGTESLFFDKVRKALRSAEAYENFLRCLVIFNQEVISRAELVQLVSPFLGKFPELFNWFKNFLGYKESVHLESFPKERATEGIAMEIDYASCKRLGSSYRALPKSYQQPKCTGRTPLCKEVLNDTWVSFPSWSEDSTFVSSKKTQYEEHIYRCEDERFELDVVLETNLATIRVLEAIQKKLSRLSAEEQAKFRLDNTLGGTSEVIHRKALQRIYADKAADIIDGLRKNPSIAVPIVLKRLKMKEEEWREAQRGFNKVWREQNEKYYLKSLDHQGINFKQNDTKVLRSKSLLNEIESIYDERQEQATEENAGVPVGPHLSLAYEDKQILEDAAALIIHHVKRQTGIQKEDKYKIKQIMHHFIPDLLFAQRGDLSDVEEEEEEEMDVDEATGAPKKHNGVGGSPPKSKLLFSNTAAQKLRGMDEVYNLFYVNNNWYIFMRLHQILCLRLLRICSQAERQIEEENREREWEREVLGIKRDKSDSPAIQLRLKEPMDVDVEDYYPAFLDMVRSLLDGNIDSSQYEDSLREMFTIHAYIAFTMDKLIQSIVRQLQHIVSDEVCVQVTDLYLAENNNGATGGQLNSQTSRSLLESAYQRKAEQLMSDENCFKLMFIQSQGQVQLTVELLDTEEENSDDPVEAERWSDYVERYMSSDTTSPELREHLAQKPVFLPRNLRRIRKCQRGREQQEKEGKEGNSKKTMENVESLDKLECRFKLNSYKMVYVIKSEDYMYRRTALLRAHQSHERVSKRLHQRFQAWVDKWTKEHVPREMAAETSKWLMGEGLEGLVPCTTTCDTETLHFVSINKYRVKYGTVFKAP
The description is as above. The note with it: chain shown with the change; yeast strain L40; parent: est. 60000; read off a plot.

B1: LexA-SAP130 C-terminal region (amino acids 760-1048) WT, Q9H0E3 K794A; K878A; K932A (protein)
chain: APPPSVTVGGSLSSVLGPPVPEIKVAEEVEPMDIMRPVSAVPPLATNTVSPSLALLANNLSMPTSDLPPGASPRKKPRKQQHVISTEEGDMMETNSTDDEKSTAKSLLVAAEKRKSPPKEYIDEEGVRYVPVRPRPPITLLRHYRNPWKAAYHHFQRYSDVRVAEEKKAMLQEIANQKGVSCRAQGWKVHLCAAQLLQLTNLEHDVYERLTNLQEGIIPKKKAATDDDLHRINELIQGNMQRCKLVMDQISEARDSMLKVLDHKDRVLKLLNKNGTVKKVSKLKRKEKV
For the molecule B1, the response was 43000 in experiment [1] and 190000 in experiment [2].
